Entries after “also recorded” stand apart in the source; their conditions may differ.
Experiments:
T cells = assay: Mixed leucocyte reaction; format: cell-based, human; conditions: 200 pmol, 24 hours pre-incubation of stimulators, day 5
Procedure: DCR-2PBD's impact on antigen presentation was assessed by incubating DCR-2PBD or isotope-PBD with whole PBMC for 24 hours then washing, afterwards adding allogenic CFSE labeled T cells (naive CD4, magnetically separated) and measuring T cell division via reduction in CFSE expression. In more detail, T cells were depleted from PBMC by magnetic selection using an AutoMACS Pro with anti-CD3 mAb (HIT3a, Biolegend) with greater than 90% depletion in all samples. The CD3-depleted PBMC were incubated in complete RPMI media with DCR-2-PBD (200 pmol), isotype-PBD (200 pmol) or PBS for 24 hours. After washing to remove unbound ADC, the CD3-depleted PBMC were used to stimulate allogeneic CFSE labelled naive CD4+ T cells which had been prepared using a RosetteSep Kit (Stem Cell Technologies 17555). On day 5 the proliferation of T cells, identified using anti-CD3 AF700 (SP34-2), was assessed by CFSE reduction using flow cytometry. The results of the DCR-2-PBD and isotype-PBD groups were normalised to the PBS control group. […]
T cells were depleted from PBMC by magnetic selection using an AutoMACS Pro with anti-CD3 mAb (HIT3a, Biolegend) with greater than 90% depletion in all samples. […] On day 5 the proliferation of T cells, identified using anti-CD3 AF700 (SP34-2), was assessed by CFSE reduction using flow cytometry. […]

THP-1 = assay: Cytotoxicity assay on THP-1 AML cell line; format: cell-based
Procedure: (§1) Kinetic analysis was performed as above.
(§2) DCR-2 and an isotype control mAb were conjugated to a PBD dimer toxin, to assess potential cytotoxicity. The cytotoxicity of DCR-2-PBD and the isotype-PBD were tested against CD300f+ and CD300f− cell lines and the results are shown in FIG. 6 and Table 2.

dendritic cells = assay: Activation marker expression on dendritic cells after LPS; format: cell-based, human; conditions: HLA-DR, CD11c, CD80, CD83; 200 pmol
Procedure: The activity of DCR-2PBD on the upregulation of activation markers on DC was measured by incubating whole PBMC with DCR-2PBD or no antibody for […] before washing, followed by 12 hours of LPS stimulation. Control DC were not exposed to DCR-2PBD or LPS. Myeloid DC were gated out by excluding dead cells, Lin^+(CD3, CD20, CD19, CD56, CD14), then gating on HLA-DR^+ and CD11c^+ cells. The activation markers CD80 and CD83 were assessed via flow cytometry. The changes on activation were determined by comparing activated DC incubated with or without DCR-2PBD compared to inactivated DC.
(§3) PBMC were incubated in complete RPMI media with or without DCR-2-PBD (200 pmol). After 12 hours, washed cells were incubated for a further 12 hours with or without LPS then phenotyped for the expression of activation markers on DC populations. MoDC were derived from CD14+ monocytes as described previously (Fromm et al. J Leukoc Biol. 2020; 107(2):323-339). DCR-2-PBD or isotype-PBD (200 pmol) were added for 72 hours prior to enumeration of live cells by flow cytometry.

[1] = system: CD300f- lymphoma cell line Mino; assay: Bystander killing assay; format: cell-based
Procedure: as §1
AML surface targets, including CD300f, can be heterogeneously expressed within AML cases and we considered bystander killing advantageous for an effective ADC. To determine whether DCR-2PBD effects cells not expressing CD300f, we investigated bystander killing by comparing the viability of the CD300f− lymphoma cell line Mino cultured on its own, with Mino cultured mixed with HL-60 in the presence of DCR-2-PBD in mixtures of 50% HL-60/50% Mino, and 25% HL-60/75% Mino. Cells were incubated for 96 hours with various concentrations of DCR-2PBD (FIG. 11). […] The reduction in the Mino cells when combined with HL-60 confirm the ability of DCR-2-PBD to generate bystander killing.

[2] = system: monocyte-derived dendritic cells (MoDC); assay: Monocyte-derived dendritic cell (MoDC) toxicity assay; format: cell-based, human; conditions: 200 pmol, 72 hours
Procedure: as §3

primary AML cells = assay: Primary AML xenograft in NSG mice; format: in vivo, mouse; conditions: single dose 300 ug/kg
Procedure: For primary AML xenografts, NSG mice were irradiated with 150cGy 24 hours before 8×10^6 AML cells from CRGH11 (sample 10 Table S1) were injected iv. Once engraftment was established (>1% human CD45 positive events in PB), mice were given DCR-2-PBD or isotype-PBD. Mice were euthanised 6 days later and the BM was harvested for enumeration and surface marker analysis by flow cytometry.

HEL = assay: Cytotoxicity assay on HEL erythroleukemic cell line; format: cell-based
Procedure: as §1, §2

HL-60 cell line = assay: Exposure time (kinetic) cytotoxicity on HL-60; format: cell-based
Procedure: as §1
The exposure time required for DCR-2-PBD to cause cytotoxicity on the HL-60 cell line was assessed and the results are shown in FIG. 10. The viability of HL-60 cells was reduced to less than 10% within 5 hours of exposure to DCR-2PBD. At 12 hours, greater than 98% of HL-60 proliferation was inhibited while at 24 and 96 hours inhibition was greater than 99%.

HL-60 cells = assay: HL-60 leukemic xenograft model in NSG mice; format: in vivo, mouse
Procedure: For the HL-60 leukemic model, NSG mice were irradiated with 200cGy 24 hours prior to intravenous administration of 5×10^6 HL-60 cells. On day 7, mice were injected with DCR-2-PBD, isotype-PBD or PBS and monitored for disease progression and survival. Mice were euthanised when their clinical score was ≥4 or on d70.
On day 7, mice received a single injection of either PBS, or 300 μg/kg of CMRF-81PBD or DCR-2PBD, and their survival monitored.

B1: DCR-2PBD: anti-CD300f mAb DCR-2 conjugated to pyrrolobenzodiazepine dimer via Cathepsin B-cleavable linker MA-PEG4-VA-PBD; drug to antibody ratio 3.3 (conjugate)
VH: MESGGGLVQPGGPLKLSCAASGFGFSGSWMSWVRQAPGKGLEWIGQINPDSSTINYTPSLKDKFIISRDNAKNTLYLQINKVRSEDTALYYCARRGFFEGYSAWFAYW
VL: ILMTQTPKFLLVSAGDRVTITCKASQSVSNDVAWYQQKPGQSPSLLIYYASNRNTGVPDRFTGSGYETDFTFTISTVQAEDLAVYFCQQDYTSPWTFGGG
T cells
  T cell proliferation in mixed lymphocyte reaction: no impact; also recorded: does not reduce T cell proliferation
THP-1
  IC50: 0.0294 nM
Dendritic cells
  up-regulation of activation markers on dendritic cells after LPS: does not prevent up-regulation of activation markers
[1]; 25% HL-60/75% Mino, 25 pM, 96 hours (p=0.0002)
  Mino viability vs Mino only control: significant reduction in viability
[1]; 50% HL-60/50% Mino, 12.5 pM, 96 hours (p=0.0004)
  Mino viability vs Mino only control: significant reduction in viability
[1]; 50% HL-60/50% Mino, 25 pM, 96 hours (p<0.0001)
  Mino viability vs Mino only control: significant reduction in viability
[2]
  effect on MoDC survival: little effect
Primary AML cells
  AML cells as mean percentage of total cells in BM: 12.32%
  human AML cells in BM, mean total enumeration: 0.37×10^6
HEL
  IC50: 0.544 nM
HL-60 cell line; 12 hours exposure
  HL-60 proliferation inhibited: greater than 98%
HL-60 cell line; 24 hours exposure
  HL-60 proliferation inhibition: greater than 99%
HL-60 cell line; 96 hours exposure
  HL-60 proliferation inhibition: greater than 99%
HL-60 cell line; incubation up to 96 hours
  time dependent cytotoxicity: rapid cytotoxicity
HL-60 cell line; within 5 hours of exposure
  viability of HL-60 cells: less than 10%
HL-60 cells; 300 ug/kg
  human cells in mice surviving until day 70: No human cells could be detected
HL-60 cells; 300 ug/kg, endpoint day 70
  animals surviving to the experiment endpoint: Six of 8
HL-60 cells; single injection 300 ug/kg on day 7 (p=0.0058)
  survival compared to isotype-PBD: significantly increased survival

Reference: US20220296727A1, “Immunoconjugate” (DendroCyte BioTech Pty Ltd, priority 2019, published 2022)
